According to patent publication US20110081661A1, “Modified photoproteins with increased affinity for calcium and enhanced bioluminescence and uses thereof” (Millipore Corporation, priority 2009, published 2011):

Tests used:
[1] = target: GIP (gastric inhibitory polypeptide) receptor (UniProt P48546); assay: cell-based or functional assay
[2] = Calcium EC50 of mitochondrially targeted photoproteins in HEK293T cells without cotransfected GPCR or G protein (Table II); format: cell-based; conditions: no cotransfected GPCR or G protein
Text: In an exemplary experiment, HEK293T cells (ATCC-CRL-11268) were transiently co-transfected with 2 μgs of each of pcDNA3.1-H1 (containing the cDNA encoding the H1 histamine receptor) and pcDNA3.1 containing the cDNAs encoding wild type mitochondrial Clytin (referred to as mt-Clytin), modified mitochondrial Clytin having a lysine to aspartic acid mutation at position 168 (referred to as mt-Clytin K168D), modified mitochondrial Clytin having a lysine to glutamic acid mutation at position 168 (referred to as mt-Clytin K168E), wild-type mitochondrial Obelin (referred to as mt-Obelin) or wild type mitochondrial Aequorin (referred to as mt-Aequorin) using the Targefect-293 reagent (TARGETING SYSTEMS). 48 hours later, the cells were detached using Accutase (MILLIPORE), centrifuged, and resuspended in […] in FreeStyle293 media (INVITROGEN), for incubation for 3-4 hours at room temperature in the dark. After incubation, the cells were centrifuged and resuspended in HBSS/HEPES buffer without Ca^2+ at a density of 1×10^6 cells/ml. Next, 100 μl/well of cell suspension for each transfection were added by the use of a Victor2 luminometer plate reader (WALLAC, […]), to a 96-well plate containing 50 μL/well Triton X-100 in MOPS/KCl buffer containing 10 mM EGTA and a series of Ca^2+ concentrations, such that free calcium concentrations ranged from 17 nM to 39.6 μM, followed by for measurement of total bioluminescence at 20 seconds.
(§1) Signal to background ratio was calculated as the signal induced by maximal GIP (1 μM) divided by the signal induced by buffer alone. The EC50 value for calcium was determined as described above for FIG. 2 for mitochondrially targeted photoproteins transfected into HEK293T cells in the absence of a cotransfected GPCR or G protein. Affinity for calcium was correlated with the properties of the amino acid side chain at residue 168 of Clytin.

GIP Receptor = target: T1, GIP Receptor (Homo sapiens, UniProt P48546); assay: GIP receptor-mediated bioluminescence in HEK293T cells with chimeric promiscuous G protein (FIG. 5, Table II); format: cell-based; conditions: for Max signal with GIP (RLU × 10^−5) / EC50: HEK293T cells, GIP Receptor + promiscuous G protein; for EC50: luminescence vs GIP concentration; for % GPCR/total: signal induced by maximal GIP (1 μM) as percentage of signal induced by Triton X-100 with 1 mM Ca^2+; for Signal: background with GIP: signal induced by maximal GIP (1 μM) divided by signal induced by buffer alone
T1 construct: host or cells: HEK293T
T1 sequence (P48546 22-466): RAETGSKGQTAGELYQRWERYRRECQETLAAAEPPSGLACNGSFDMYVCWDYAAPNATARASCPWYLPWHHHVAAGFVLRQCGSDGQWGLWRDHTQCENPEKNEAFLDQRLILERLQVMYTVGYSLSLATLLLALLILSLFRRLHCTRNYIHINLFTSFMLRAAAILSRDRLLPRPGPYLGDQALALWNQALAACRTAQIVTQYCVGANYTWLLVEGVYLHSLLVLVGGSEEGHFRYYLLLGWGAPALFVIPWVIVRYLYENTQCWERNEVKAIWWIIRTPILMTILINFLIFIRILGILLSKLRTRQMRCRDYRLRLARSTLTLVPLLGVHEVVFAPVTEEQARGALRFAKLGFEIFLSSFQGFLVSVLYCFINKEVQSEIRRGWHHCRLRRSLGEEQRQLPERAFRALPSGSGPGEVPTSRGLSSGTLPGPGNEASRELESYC
Experimental: However, coexpression of GIP receptor with a chimeric G protein containing sequences from Gαs and Gαq enable the GIP receptor to stimulate calcium flux.
The results of the dose response curve to varying concentrations of GIP with a subset of the photoproteins are summarized in FIG. 5.
as §1
The EC50 value for receptor-mediated calcium flux induced by the ligand was determined by plotting luminescence (Y-axis) versus ligand concentration applied to the cells (X-axis), and applying a sigmoidal dose-response curve-fitting algorithm (GraphPad Prism). GPCR-mediated signals of the various modified forms of Clytin having an amino acid substitution at position 168 were also related to the nature of the side chain. In addition, the subcellular location of the photoproteins (cytosolic vs mitochondrial) appeared to have an effect on GPCR-mediated signals. […] All of the other mitochondrially targeted mutants except for Clytin K168R and wild-type Clytin yielded results that were in the range of those observed for wt-Aequorin.

H1 histamine receptor = target: T2, H1 histamine receptor (Homo sapiens, UniProt P35367); assay: GPCR-mediated versus total bioluminescence in U-2OS cells (FIG. 4); format: cell-based; conditions: 10 μM histamine vs Triton X-100 with 1 mM calcium
T2 construct: expressed in transfected cells; host or cells: U-2OS
T2 sequence (P35367 whole entry): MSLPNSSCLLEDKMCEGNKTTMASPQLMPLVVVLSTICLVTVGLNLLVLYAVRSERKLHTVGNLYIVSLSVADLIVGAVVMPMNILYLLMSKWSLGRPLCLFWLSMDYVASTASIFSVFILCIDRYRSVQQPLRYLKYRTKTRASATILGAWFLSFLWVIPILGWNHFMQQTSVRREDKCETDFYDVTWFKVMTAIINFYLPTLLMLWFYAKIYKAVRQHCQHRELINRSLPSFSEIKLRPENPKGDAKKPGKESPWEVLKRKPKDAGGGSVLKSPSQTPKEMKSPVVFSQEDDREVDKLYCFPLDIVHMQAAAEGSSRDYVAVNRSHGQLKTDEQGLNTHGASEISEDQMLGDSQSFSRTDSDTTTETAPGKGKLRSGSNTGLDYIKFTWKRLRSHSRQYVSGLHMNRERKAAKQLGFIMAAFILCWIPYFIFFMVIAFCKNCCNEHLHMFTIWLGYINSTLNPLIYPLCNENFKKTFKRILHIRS
Experimental: In another experiment, the ability of the various photoproteins to detect calcium flux in live cells was assessed by adding varying concentrations of histamine to cells in order to activate the H1 histamine receptor followed by measurement of bioluminescence of the various photoproteins. U-2OS cells were transfected with a cDNA encoding H1 histamine receptor along with a cDNA encoding either a wild-type photoprotein or a modified photoprotein according to the invention, as described above in Example 2, except that Lipofectamine-2000 (INVITROGEN) was used as the transfection reagent. On the second day, the cells were trypsinized, counted, and plated in a white tissue-culture treated 96-well plate (COSTAR) at a density of about 50,000 cells/well in growth media consisting of DMEM containing 10% fetal bovine serum, non-essential amino acids, HEPES and penicillin/streptomycin. On the third day, the medium was removed and cells were washed once with 200 μl/well of HBSS/HEPES (containing Ca^2+). Cells were subsequently incubated with 5 μM coelenterazine in HBSS/HEPES (containing Ca^2+) in a volume of 200 μl/well, for 3-4 hours at room temperature in the dark. After incubation, the coelenterazine solution was removed and cells were washed and replaced with HBSS/HEPES buffer containing both Ca^2+ and Mg^2+. 50 μl/well of histamine at varying concentrations in HBSS/HEPES containing both Ca^2+ and Mg^2+ was added to the cells and total bioluminescence was measured at 20 seconds using a Victor2 luminometer.
In an exemplary experiment, U-2OS cells were transfected, plated and loaded with coelenterazine as described in Example 3. Luminescence induced by buffer alone or by 10 μM histamine was measured also as described in Example 3. Additionally, luminescence induced by addition of Triton X-100 in the presence of 1 mM calcium was also determined in order to assess the total amount of active photoprotein detectable using saturating calcium concentrations in cells.

Molecule	EC50 [2] [nM]	Max signal with GIP (RLU × 10^−5) (GIP Receptor)	EC50 (GIP Receptor) [nM]	% GPCR/total (GIP Receptor) [%]	Signal: background with GIP (GIP Receptor)	also measured
GIP (gastric inhibitory polypeptide) ligand (from UniProt P09681 52-93)	–	–	–	–	–	EC50 for GIP (nM); receptor-mediated calcium flux luminescence in HEK293T cells, reporter Cyto-aequorin [1]: 6.67 nM; EC50 for GIP (nM); receptor-mediated calcium flux luminescence in HEK293T cells, reporter Cyto-clytin K168D [1]: 4.01 nM; EC50 for GIP (nM); receptor-mediated calcium flux luminescence in HEK293T cells, reporter Cyto-clytin K168E [1]: 7.9 nM; EC50 for GIP (nM); receptor-mediated calcium flux luminescence in HEK293T cells, reporter Cyto-clytin wt [1]: 9.67 nM; EC50 for GIP (nM); receptor-mediated calcium flux luminescence in HEK293T cells, reporter Cyto-obelin [1]: 9.86 nM; EC50 for GIP (nM); receptor-mediated calcium flux luminescence in HEK293T cells, reporter Mt-aequorin [1]: 11.3 nM; EC50 for GIP (nM); receptor-mediated calcium flux luminescence in HEK293T cells, reporter Mt-clytin K168D [1]: 9.1 nM; EC50 for GIP (nM); receptor-mediated calcium flux luminescence in HEK293T cells, reporter Mt-clytin K168E [1]: 21.6 nM; EC50 for GIP (nM); receptor-mediated calcium flux luminescence in HEK293T cells, reporter Mt-clytin K168G [1]: 15.1 nM; EC50 for GIP (nM); receptor-mediated calcium flux luminescence in HEK293T cells, reporter Mt-clytin K168H [1]: 19.2 nM; EC50 for GIP (nM); receptor-mediated calcium flux luminescence in HEK293T cells, reporter Mt-clytin K168N [1]: 21 nM; EC50 for GIP (nM); receptor-mediated calcium flux luminescence in HEK293T cells, reporter Mt-clytin K168Q [1]: 17.4 nM; EC50 for GIP (nM); receptor-mediated calcium flux luminescence in HEK293T cells, reporter Mt-clytin K168R [1]: 29.1 nM; EC50 for GIP (nM); receptor-mediated calcium flux luminescence in HEK293T cells, reporter Mt-clytin K168S [1]: 15.4 nM; EC50 for GIP (nM); receptor-mediated calcium flux luminescence in HEK293T cells, reporter Mt-clytin K168T [1]: 13.4 nM; EC50 for GIP (nM); receptor-mediated calcium flux luminescence in HEK293T cells, reporter Mt-clytin K168V [1]: 16.8 nM; EC50 for GIP (nM); receptor-mediated calcium flux luminescence in HEK293T cells, reporter Mt-clytin K168Y [1]: 16.4 nM; EC50 for GIP (nM); receptor-mediated calcium flux luminescence in HEK293T cells, reporter Mt-clytin wt [1]: 12.9 nM; EC50 for GIP (nM); receptor-mediated calcium flux luminescence in HEK293T cells, reporter Mt-obelin [1]: 13.7 nM
Mt-clytin K168V: Mitochondrial K168V modified Clytin, SEQ ID NO:26 (protein) MSVLTPLLLRGLTGSARRLPVPRAKIHSLPPEGKLRPNFDNPKWVNRHKFMFNFLDINGDGKITLDEIVSKASDDICAKLGATPEQTKRHQDAVEAFFKKIGMDYGKEVEFPAFVDGWKELANYDLKLWSQNKKSLIRDWGEAVFDIFDKDGSGSISLDEWKAYGRISGICSSDEDAEKTFKHCDLDNSGVLDVDEMTRQHLGFWYTLDPNADGLYGNFVP	389	3.60	16.8	18.5	158.0	–
Mt-clytin K168R: Mitochondrial K168R modified Clytin, SEQ ID NO:30 (protein) MSVLTPLLLRGLTGSARRLPVPRAKIHSLPPEGKLRPNFDNPKWVNRHKFMFNFLDINGDGKITLDEIVSKASDDICAKLGATPEQTKRHQDAVEAFFKKIGMDYGKEVEFPAFVDGWKELANYDLKLWSQNKKSLIRDWGEAVFDIFDKDGSGSISLDEWKAYGRISGICSSDEDAEKTFKHCDLDNSGRLDVDEMTRQHLGFWYTLDPNADGLYGNFVP	581	1.89	29.1	3.3	86.8	–
Mt-clytin K168H: Mitochondrial K168H modified Clytin, SEQ ID NO:14 (protein) MSVLTPLLLRGLTGSARRLPVPRAKIHSLPPEGKLRPNFDNPKWVNRHKFMFNFLDINGDGKITLDEIVSKASDDICAKLGATPEQTKRHQDAVEAFFKKIGMDYGKEVEFPAFVDGWKELANYDLKLWSQNKKSLIRDWGEAVFDIFDKDGSGSISLDEWKAYGRISGICSSDEDAEKTFKHCDLDNSGHLDVDEMTRQHLGFWYTLDPNADGLYGNFVP	459	4.98	19.2	14.9	148.3	–
Mt-clytin K168Y: Mitochondrial K168Y modified Clytin, SEQ ID NO:28 (protein) MSVLTPLLLRGLTGSARRLPVPRAKIHSLPPEGKLRPNFDNPKWVNRHKFMFNFLDINGDGKITLDEIVSKASDDICAKLGATPEQTKRHQDAVEAFFKKIGMDYGKEVEFPAFVDGWKELANYDLKLWSQNKKSLIRDWGEAVFDIFDKDGSGSISLDEWKAYGRISGICSSDEDAEKTFKHCDLDNSGYLDVDEMTRQHLGFWYTLDPNADGLYGNFVP	284	2.89	16.4	18.5	112.8	–
Mt-obelin: Mitochondrial Wild-type Obelin (mt-Obelin), SEQ ID NO:7 (protein, listed as Obelia longissima) MSVLTPLLLRGLTGSARRLPVPRAKIHSLPPEGKLMSSKYAVKLKTDFDNPRWIKRHKHMFDFLDINGNGKITLDEIVSKASDDICAKLEATPEQTKRHQVCVEAFFRGCGMEYGKEIAFPQFLDGWKQLATSELKKWARNEPTLIREWGDAVFDIFDKDGSGTITLDEWKAYGKISGISPSQEDCEATFRHCDLDNSGDLDVDEMTRQHLGFWYTLDPEADGLYGNGVP	373	3.66	13.7	116	172.5	–
Cyto-clytin wt: Wild type Clytin (wt-Clytin) amino acid sequence, SEQ ID NO:1; cytosolic (protein, listed as Clytia gregaria) MADTASKYAVKLRPNFDNPKWVNRHKFMFNFLDINGDGKITLDEIVSKASDDICAKLGATPEQTKRHQDAVEAFFKKIGMDYGKEVEFPAFVDGWKELANYDLKLWSQNKKSLIRDWGEAVFDIFDKDGSGSISLDEWKAYGRISGICSSDEDAEKTFKHCDLDNSGKLDVDEMTRQHLGFWYTLDPNADGLYGNFVP	–	0.2	9.67	0.3	7.0	GPCR-mediated signal as % of the total signal (H1 histamine receptor): ~3%
